Target: the molecule itself
Assay: FRET or BRET; HEK293T biosensor cells co-expressing the CFP and the YFP fusion of one aSyn variant, seeded with increasing amounts of sonicated recombinant full-length aSyn(WT) fibrils with Lipofectamine 2000, 48 h, CFP-YFP FRET by flow cytometry, normalized to aSyn(WT) with 100 nM fibrils

B1: aSyn amino acids 35 to 110, CFP/YFP (domain or fragment)
chain: not shown
With B1 the “fold sensitivity of the biosensor against full-length WT aSyn” value was ≥ 4 fold.

Source: PMC10610913, “Saturation mutagenesis of α-synuclein reveals monomer fold that modulates aggregation” (Science Advances, 2023)
